Target: recombinant human IGF-BP3 (GT2675 produced by GT) (UniProt P17936)
Sequence (P17936 28-291): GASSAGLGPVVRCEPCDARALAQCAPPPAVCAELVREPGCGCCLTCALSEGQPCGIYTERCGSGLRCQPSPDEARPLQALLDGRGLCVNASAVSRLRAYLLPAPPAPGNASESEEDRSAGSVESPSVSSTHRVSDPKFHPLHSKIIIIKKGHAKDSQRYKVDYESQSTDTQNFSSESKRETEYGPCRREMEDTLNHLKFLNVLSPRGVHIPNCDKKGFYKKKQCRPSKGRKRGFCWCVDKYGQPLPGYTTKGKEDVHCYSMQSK

human meltrin α-STFLAG after cleavage of the prodomain with thrombin (mature meltrin α having the prodomain deleted, 68 kDa)
digestion of rhIGF-BP3 by meltrin α (SDS-PAGE and western blotting of rhIGF-BP3): the band corresponding to rhIGF-BP3 disappeared in the case of the meltrin α having the prodomain cleaved

From patent US20080292619
